Results reported in US8748572B2, “RNase a peptides, fragments and uses thereof” (priority 2006, dated 2014).

Assays:
[1] = tested on: poly U, poly C, poly A, poly G, poly I, double-stranded RNA; test: ribonuclease assay, substrate preference (polyribonucleotides); assay type: biochemical; settings: 50 pmol rRNase, pH 7.0; for hydrolysis of poly U: 250 μg/ml poly U
Experimental: FIGS. 4 A-D are graphs showing the ribonucleolytic activity of recombinant leukocyte RNases. (A) is a graph showing the optimum pH for RNase activity. Enzymatic activity was determined with 50 pmol rRNase A-1 (open squares) and rRNase A-2 (closed circles) that was incubated with 250 μg/ml yeast tRNA in 40 mM sodium phosphate buffer at the pHs indicated. Measurements of A260 per time were converted to pmol/s as described in […] and Methods. (B) is a graph showing the initial rates for RNase activity. Enzymatic activity was determined as described in (A) with 40 mM sodium phosphate buffer, pH 7.0. (C) is a graph showing the substrate preference for RNase activity. 50 pmol rRNase A-1 (left panel) and rRNase A-2 (right panel) proteins were incubated with 250 μg/ml of poly U (open squares), poly C (closed circles), poly A (open diamonds), poly G (open triangles) and poly I (open circles) in 40 mM sodium phosphate buffers, pH 7.0. A260 was measured after precipitation of undigested RNA at each of the time points indicated. (D) is two panels of graphs showing interaction of RNase with human placental RNase inhibitor (hPR1). RNase activity was measured with […] of bovine pancreatic RNase (left) or […] rRNase A-1 and rRNase A-2 (right) with 250 μg/ml of yeast tRNA as substrate with (+) or without (−) 200 U human placental RNase inhibitor (hPR1) in 40 mM sodium phosphate buffer, pH 7.0. The hPR1 was added to the RNases in buffer 5 min prior to initiation of RNase assay by addition of substrate. *p<0.01.
The ribonuclease (RNase) assay with yeast tRNA substrate has been described in detail elsewhere. In this study, 10 μL of a 20 mg/ml solution of yeast tRNA, polyuridylic acid (poly U), polyadenylic acid (poly A), polycytidylic acid (poly C), polyguanylic acid (poly G), or polyinosinic acid (poly I) (Sigma-Aldrich) were added to 800 μl of 40 mM sodium phosphate buffer, pH 7.0 containing recombinant FLAG-tagged chicken RNase protein. In experiments in which the pH optimum was to be determined, 40 mM sodium phosphate buffers of pH 5.0, 5.5, 6.0, 6.5, […] or 8.0 were used instead of the buffer of pH 7.0. In some experiments, 200 U human placental RNase inhibitor (Boehringer Mannheim) were added prior to the addition of the tRNA substrate. Conversion of units A260 per unit time to pmol/s were performed as described in [29], based on the following conversion factors: the average molecular weight of a molecule of tRNA is 28,100 (75-90 ribonucleotides/tRNA molecule×341 MW per ribonucleotide) with an A260 of 1.0 corresponding to 40 μg of RNA.

E. coli DH5α = test: bactericidal colony-forming assay, E. coli; assay type: cell-based, Escherichia coli
Experimental: (§1) FIGS. 5 A & B are graphs showing the bactericidal activity of rRNases A-1 and A-2. In panel (A) E. coli DH5α and in panel (B) S. aureus 502A were re-suspended in 100 mM sodium phosphate buffer, pH 7.4, and incubated with the indicated concentrations of chicken leukocyte RNase A-1 (open squares) and A-2 (closed circles) for 4 h at 37° C., plated on RNase-free LB agar, and grown overnight for colony counts.
RNase A polypeptides and fragments according to the invention that have bactericidal activity are particularly preferred for use in the treatment methods of the invention. The bactericidal and bacteriostatic activity of a particular RNase A polypeptides or fragments can be assessed by known protocols, such as that described in the methods section and the following described protocol, herein referred to as “a standard bacterial colony formation assay.” Bactericidal assays are well-described in the art, and are performed as described previously, and as exemplified in Examples 3-6. Briefly, an aliquot from a single bacterial colony overnight culture grown in Luria-Beitani (LB) broth is diluted 1:100 in sodium phosphate, pH 7.4, collected by centrifugation, and resuspended in sodium phosphate, pH 7.4. An aliquot of bacteria in buffer are incubated for 4 hr at 37° C. with recombinant protein or peptide at concentrations indicated, or diluent control and were then diluted 10, 100, or 1000-fold prior to plating on LB agar for overnight growth for colony counts.
Next, the bactericidal activity of chicken leukocyte RNases were examined using a colony-forming assay as previously described for eosinophil cationic protein [28]. […] E. coli was more susceptible to the bactericidal activity of leukocyte rRNase A-2 than was S. aureus, as 5 μM rRNase A-2 reduced the colony count of E. coli 10^7-fold, while reducing the colony count of S. aureus, only 100-fold. Recombinant RNase A-1 had no effect on colony number of E. coli or S. aureus concentrations up to and including […].
Bactericidal assays were performed as described previously with modifications. Briefly, 100 microliters from a single bacterial colony overnight culture grown in Luria-Bertani (LB) broth was diluted 1:100 in 100 mM sodium phosphate, pH 7.4, collected by centrifugation, and resuspended in 1 ml sodium phosphate, pH 7.4. Ten microliters of bacteria in buffer are incubated for 4 hr at 37° C. with 10 microliters recombinant protein or peptide at concentrations indicated, or diluent control and were then diluted 10, 100, or 1000-fold prior to plating on LB agar for overnight growth for colony counts. All points were determined in triplicate.

S. aureus 502A = test: bactericidal colony-forming assay, S. aureus; assay type: cell-based, Staphylococcus aureus
Experimental: as §1
RNase A polypeptides and fragments according to the invention that have bactericidal activity are particularly preferred for use in the treatment methods of the invention. The bactericidal and bacteriostatic activity of a particular RNase A polypeptides or fragments can be assessed by known protocols, such as that described in the methods section and the following described protocol, herein referred to as “a standard bacterial colony formation assay.” Bactericidal assays are well-described in the art, and are performed as described previously, and as exemplified in Examples 3-6. Briefly, an aliquot from a single bacterial colony overnight culture grown in Luria-Beitani (LB) broth is diluted 1:100 in sodium phosphate, pH 7.4, collected by centrifugation, and resuspended in sodium phosphate, pH 7.4. […]
Bactericidal assays were performed as described previously with modifications. […] All points were determined in triplicate.

isoelectric point = assay type: physicochemical

Row | Molecule | hydrolysis of poly U [1] | cleavage of poly C and poly A ([1]; 250 μg/ml substrate) | reduction of colony count of E. coli (E. coli DH5α; 5 μM, 4 h at 37° C.) | colony count of E. coli after incubation (E. coli DH5α; 5 μM, 4 hrs) | reduction of colony count of S. aureus (S. aureus 502A; 5 μM, 4 h at 37° C.) | isoelectric point (pI) (isoelectric point) | polyribonucleotides other than poly U as substrates ([1]; 250 μg/ml substrate) | bactericidal activity against E. coli (in words), recombinant proteins (E. coli DH5α; 5 μM, 4 hrs) | effect on colony number of E. coli (E. coli DH5α; concentrations up to and including 5 μl %/1) | effect on colony number of S. aureus (S. aureus 502A; concentrations up to and including 5)
1 | rRNase A-2: recombinant carboxy-terminal FLAG-tagged Gallus gallus leukocyte RNase A-2, SEQ ID NO: 4, GenBank DQ395276 (protein, listed as Gallus gallus, C-terminal FLAG tag) VPTYQDFLYKHMDFPKTSFPSNAAYCNVMMVRRGMTAHGRCKSFNTFVHTDPRNLNTLCINQPDQALRTTRRHFRITDCKLIRSHPTCRYSGNQFNRRVRVGCRGGLPVHLDGTSP | hydrolyzed poly U RNA, at initial rates that were roughly equivalent to one another | cleaved poly C and poly A, although at initial rates that were lower than those observed for poly U | 10^7 fold | < 100 CFU/ml | 100 fold | 11.0 |  |  |  | 
2 | rRNase A-1: recombinant carboxy-terminal FLAG-tagged Gallus gallus leukocyte RNase A-1, SEQ ID NO: 2, GenBank DQ395275 (protein, listed as Gallus gallus, C-terminal FLAG tag) VPTYQDFLRTHVDFPKTSFPNIAAYCNVMMVRRGINVHGRCKSLNTFVHTDPRNLNTLCINQPNRALRTTQQQLPVTDCKLIRSHPTCSYTGNQFNHRVRVGCWGGLPVHLDGTFP | hydrolyzed poly U RNA, at initial rates that were roughly equivalent to one another |  |  |  |  | 10.2 | poor substrates | no impact on colony count | no effect | no effect
